Reference: patent US20240358847A1 (Merck Sharp & Dohme, published 2024)
Changes are numbered by the printed parent chain. Blank lines part the entries; values can stand above or below the binder they belong to.

Experiments:
[1] = target: T1, TROP2 on BxPC-3 and MDA-MB-231-KWL cells (human, UniProt P09758 27-323); assay: on-cell ELISA, MDA-MB-231-KWL cells (TROP2 low); parameters: unit not given beside the values
T1 construct: whole, on cells
T1 sequence (looked up): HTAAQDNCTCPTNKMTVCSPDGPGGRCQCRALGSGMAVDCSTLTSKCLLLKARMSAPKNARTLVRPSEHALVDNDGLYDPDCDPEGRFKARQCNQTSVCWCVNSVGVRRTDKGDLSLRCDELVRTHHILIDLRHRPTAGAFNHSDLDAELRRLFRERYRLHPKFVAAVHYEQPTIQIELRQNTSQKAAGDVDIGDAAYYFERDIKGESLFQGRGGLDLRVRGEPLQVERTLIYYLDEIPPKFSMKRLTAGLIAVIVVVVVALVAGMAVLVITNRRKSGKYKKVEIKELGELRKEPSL
Description: (§1) Cells were plated in duplicate onto 96-well plates, and primary antibody was diluted in cell culture medium with a starting concentration of 30 μg/mL (200 nM) with a dilution factor of 1:5. […] Data was plotted and analyzed. EC50 ([…]) was measured along with area under the curve (AUC) for each cell line.

[2] = target: T1, TROP2 on BxPC-3 and MDA-MB-231-KWL cells; assay: on-cell ELISA, BxPC-3 vs MDA-MB-231-KWL cells
Description: as §1

[3] = target: T1, TROP2 on BxPC-3 and MDA-MB-231-KWL cells; assay: on-cell ELISA, BxPC-3 cells (TROP2 high); parameters: unit not given beside the values
Description: as §1

- AUC (MDA-MB-231-KWL) [1]: 80
- ΔAUC [2]: 188
- AUC (BxPC-3) [3]: 268
B2: mAb_LC_Hm_Y105S (antibody, human IgG1, kappa)
heavy: not shown
light: DIQLTQSPSSLSASVGDRVSITCKASQDVSIAVAWYQQKPGKAPKLLIYSASYRYTGVPDRFSGSGSGTDFTLTISSLQPEDFAVYYCQQHYITPLTFGAGTKVEIKRTVAAPSVFIFPPSDEQLKSGTASVVCLLNNFYPREAKVQWKVDNALQSGNSQESVTEQDSKDSTYSLSSTLTLSKADYEKHKVYACEVTHQGLSSPVTKSFNRGEC

- AUC (MDA-MB-231-KWL) [1]: 4.22
- ΔAUC [2]: 129
- AUC (BxPC-3) [3]: 133
B4: mAb_Lm_S50L_HC (antibody, human IgG1, kappa)
heavy: not shown
light: B2 light with S50L

- AUC (MDA-MB-231-KWL) [1]: 16.1
- ΔAUC [2]: 148
- AUC (BxPC-3) [3]: 165
B6: mAb_Lm_Y92E_HC (antibody, human IgG1, kappa)
heavy: not shown
light: B2 light with Y92E

- AUC (MDA-MB-231-KWL) [1]: 219
- ΔAUC [2]: 71.9
- AUC (BxPC-3) [3]: 291
B8: mAb_LC_Hm_F29G (antibody, human IgG1, kappa)
heavy: not shown
light: B2 light

- ΔAUC [2]: 181
- AUC (BxPC-3) [3]: 226
B9: mAb_Lm_Y92N_HC (antibody, human IgG1, kappa)
heavy: not shown
light: B2 light with Y92N

- AUC (MDA-MB-231-KWL) [1]: 64.3
- ΔAUC [2]: 192
- AUC (BxPC-3) [3]: 256
B12: mAb_Lm_A32P_HC (antibody, human IgG1, kappa)
heavy: not shown
light: B2 light with A32P

- AUC (MDA-MB-231-KWL) [1]: 16.9
- AUC (BxPC-3) [3]: 184
B14: mAb_Lm_H91Y_HC (antibody, human IgG1, kappa)
heavy: not shown
light: B2 light with H91Y

- AUC (MDA-MB-231-KWL) [1]: 173
- ΔAUC [2]: 116
- AUC (BxPC-3) [3]: 289
B15: mAb_LC_Hm_N31P (antibody, human IgG1, kappa)
heavy: not shown
light: B2 light

- AUC (MDA-MB-231-KWL) [1]: 163
- ΔAUC [2]: 101
- AUC (BxPC-3) [3]: 265
B17: mAb_LC_Hm_Y107I (antibody, human IgG1, kappa)
heavy: not shown
light: B2 light

- AUC (MDA-MB-231-KWL) [1]: 207
- ΔAUC [2]: 71.4
- AUC (BxPC-3) [3]: 278
B18: mAb_LC_Hm_F108T (antibody, human IgG1, kappa)
heavy: not shown
light: B2 light

- AUC (MDA-MB-231-KWL) [1]: 240
- ΔAUC [2]: 77.4
- AUC (BxPC-3) [3]: 318
B21: mAb_Lm_T94F_HC (antibody, human IgG1, kappa)
heavy: not shown
light: B2 light with T94F

- AUC (MDA-MB-231-KWL) [1]: 230
- ΔAUC [2]: 94.9
- AUC (BxPC-3) [3]: 324
B24: mAb_LC_Hm_F108Q (antibody, human IgG1, kappa)
heavy: not shown
light: B2 light

- ΔAUC [2]: 134
- AUC (BxPC-3) [3]: 304
B26: mAb_Lm_Y53P_HC (antibody, human IgG1, kappa)
heavy: not shown
light: B2 light with Y53P
notes: built from the Sacituzumab light chain with the named substitution

- ΔAUC [2]: 178
- AUC (BxPC-3) [3]: 285
B27: mAb_LC_Hm_S104D (antibody, human IgG1, kappa)
heavy: not shown
light: B2 light

- AUC (MDA-MB-231-KWL) [1]: 220
- ΔAUC [2]: 85.3
- AUC (BxPC-3) [3]: 305
B28: mAb_Lm_I93G_HC (antibody, human IgG1, kappa)
heavy: not shown
light: B2 light with I93G

- AUC (MDA-MB-231-KWL) [1]: 60.9
- ΔAUC [2]: 191
- AUC (BxPC-3) [3]: 251
B30: mAb_LC_Hm_W106L (antibody, human IgG1, kappa)
heavy: not shown
light: B2 light

- AUC (MDA-MB-231-KWL) [1]: 129
- ΔAUC [2]: 156
- AUC (BxPC-3) [3]: 286
B31: mAb_LC_Hm_G33I (antibody, human IgG1, kappa)
heavy: not shown
light: B2 light

- AUC (MDA-MB-231-KWL) [1]: 162
- ΔAUC [2]: 132
- AUC (BxPC-3) [3]: 294
B32: mAb_Lm_H91K_HC (antibody, human IgG1, kappa)
heavy: not shown
light: B2 light with H91K

- ΔAUC [2]: 80.5
- AUC (BxPC-3) [3]: 291
B33: mAb_Lm_V29R_HC (antibody, human IgG1, kappa)
heavy: not shown
light: B2 light with V29R

- AUC (MDA-MB-231-KWL) [1]: 193
- ΔAUC [2]: 104
- AUC (BxPC-3) [3]: 298
B34: mAb_LC_Hm_Y32E (antibody, human IgG1, kappa)
heavy: not shown
light: B2 light

- AUC (MDA-MB-231-KWL) [1]: 201
- ΔAUC [2]: 98.1
- AUC (BxPC-3) [3]: 299
B35: mAb_Lm_Q89V_HC (antibody, human IgG1, kappa)
heavy: not shown
light: B2 light with Q89V

- AUC (MDA-MB-231-KWL) [1]: 157
- ΔAUC [2]: 148
- AUC (BxPC-3) [3]: 305
B36: mAb_Lm_S50T_HC (antibody, human IgG1, kappa)
heavy: not shown
light: B2 light with S50T

- AUC (MDA-MB-231-KWL) [1]: 7.7
- ΔAUC [2]: 134
- AUC (BxPC-3) [3]: 142
B39: mAb_LC_Hm_G33P (antibody, human IgG1, kappa)
heavy: not shown
light: B2 light

Continued, binder first:

B1: Sacituzumab (antibody, human IgG1, kappa, V domains shown)
VH: QVQLQQSGSELKKPGASVKVSCKASGYTFTNYGMNWVKQAPGQGLKWMGWINTYTGEPTYTDDFKGRFAFSLDTSVSTAYLQISSLKADDTAVYFCARGGFGSSYWYFDVWGQGSLVTVSS
VL: DIQLTQSPSSLSASVGDRVSITCKASQDVSIAVAWYQQKPGKAPKLLIYSASYRYTGVPDRFSGSGSGTDFTLTISSLQPEDFAVYYCQQHYITPLTFGAGTKVEIKR
notes: also called mAb (parental)
- AUC (MDA-MB-231-KWL) [1]: 248
- ΔAUC [2]: 70.1
- AUC (BxPC-3) [3]: 318

B3: mAb_Lm_Y53S_HC (antibody, human IgG1, kappa)
heavy: not shown
light: B2 light with Y53S
- AUC (MDA-MB-231-KWL) [1]: 205
- ΔAUC [2]: 102
- AUC (BxPC-3) [3]: 307

B5: mAb_Lm_S30R_HC (antibody, human IgG1, kappa)
heavy: not shown
light: B2 light with S30R
- AUC (MDA-MB-231-KWL) [1]: 47.1
- ΔAUC [2]: 169
- AUC (BxPC-3) [3]: 216

B7: mAb_Lm_Y53N_HC (antibody, human IgG1, kappa)
heavy: not shown
light: B2 light with Y53N
- AUC (MDA-MB-231-KWL) [1]: 140
- ΔAUC [2]: 169
- AUC (BxPC-3) [3]: 309

B10: mAb_LC_Hm_W106A (antibody, human IgG1, kappa)
heavy: not shown
light: B2 light
- AUC (MDA-MB-231-KWL) [1]: 28.7
- ΔAUC [2]: 186
- AUC (BxPC-3) [3]: 215

B11: mAb_LC_Hm_F101T (antibody, human IgG1, kappa)
heavy: not shown
light: B2 light
- AUC (MDA-MB-231-KWL) [1]: 221
- ΔAUC [2]: 93.1
- AUC (BxPC-3) [3]: 314

B13: mAb_Lm_Y53R_HC (antibody, human IgG1, kappa)
heavy: not shown
light: B2 light with Y53R
- ΔAUC [2]: 143
- AUC (BxPC-3) [3]: 323

B16: mAb_LC_Hm_F101E (antibody, human IgG1, kappa)
heavy: not shown
light: B2 light
- AUC (MDA-MB-231-KWL) [1]: 158
- ΔAUC [2]: 142
- AUC (BxPC-3) [3]: 300

B19: mAb_Lm_Y53V_HC (antibody, human IgG1, kappa)
heavy: not shown
light: B2 light with Y53V
- AUC (MDA-MB-231-KWL) [1]: 213
- ΔAUC [2]: 105
- AUC (BxPC-3) [3]: 317

B20: mAb_LC_Hm_W106E (antibody, human IgG1, kappa)
heavy: not shown
light: B2 light
- AUC (MDA-MB-231-KWL) [1]: 22.2
- ΔAUC [2]: 117
- AUC (BxPC-3) [3]: 140

B22: mAb_Lm_D28H_HC (antibody, human IgG1, kappa)
heavy: not shown
light: B2 light with D28H
- AUC (MDA-MB-231-KWL) [1]: 214
- ΔAUC [2]: 86.6
- AUC (BxPC-3) [3]: 300

B23: mAb_Lm_A32Q_HC (antibody, human IgG1, kappa)
heavy: not shown
light: B2 light with A32Q
- AUC (MDA-MB-231-KWL) [1]: 17.8
- ΔAUC [2]: 124
- AUC (BxPC-3) [3]: 142

B25: mAb_Lm_Y92A_HC (antibody, human IgG1, kappa)
heavy: not shown
light: B2 light with Y92A
- AUC (MDA-MB-231-KWL) [1]: 13.1
- ΔAUC [2]: 147
- AUC (BxPC-3) [3]: 160

B29: mAb_LC_Hm_F108S (antibody, human IgG1, kappa)
heavy: not shown
light: B2 light
- AUC (MDA-MB-231-KWL) [1]: 227
- ΔAUC [2]: 76.1
- AUC (BxPC-3) [3]: 303

B37: mAb_LC_Hm_G33S (antibody, human IgG1, kappa)
heavy: not shown
light: B2 light
- AUC (MDA-MB-231-KWL) [1]: 137
- ΔAUC [2]: 144
- AUC (BxPC-3) [3]: 281

B38: mAb_LC_Hm_Y107N (antibody, human IgG1, kappa)
heavy: not shown
light: B2 light
- AUC (MDA-MB-231-KWL) [1]: 230
- ΔAUC [2]: 86.5
- AUC (BxPC-3) [3]: 317
